Test results published in patent US20260241035A1, “FUNCTIONAL NUCLEIC ACID MOLECULE AND METHOD” (THE UNIVERSITY COURT OF THE UNIVERSITY OF EDINBURGH, priority 2022, published 2026).

System: GSC7 cells
Assay: Nano-Glo Dual-Luciferase Reporter (Nanoglo DLR) assay of enhancer activity, fold change to mCMV
Assay type: cell-based, human
Conditions: expression fold change of the individual enhancer compared to mCMV
Procedure, shortened: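 160 bp enhancer fragments in NanoLuc reporter plasmids were co-transfected 1:10 with PGK-firefly luciferase into GSC7 cells using Lipofectamine LTX/Plus and read two days later. NanoLuc signal was normalised to firefly, then expressed as fold change to the empty mCMV vector.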

B1: ID1101: enhancer fragment, SEQ ID NO: 4 (nucleic acid)
DNA: GTGAGTGTGACTCACATGCTGGCATCAGAGCCCCTCTTAGAGCTTAGAACACTGGGCCTCTGTCAGGCAAAGAAAAGGAGTCCCTATGAATAGCCATCTCCACAAATAGCAGTTACTGTCACTTCTTAAAAGACACAAGCATGGCTGGAGACCGGCACTG
Fold change (Median): 258.8 fold
